Assay results: article PMC3020921 (Molecular Biology of the Cell, 2011)
One block for each molecule: values may come before it.

How the values were obtained:
[1] = biological target: Flag-tagged Nemo-like kinase (NLK), wild type; assay: SEC
SEC = biological target: the molecule itself; assay: SEC

- stoichiometry N [1]: 2
Molecule: Flag-tagged Nemo-like kinase (NLK), wild type (enzyme)

B1: endogenous NLK protein of PC12 cells (enzyme, rat (endogenous in PC12), UniProt D3ZSZ3 1-527, looked up)
chain: MSLCGTRANAKMMAAYNGGTSAAAAGHHHHHHHHLPHLPPPHLHHHHHPQHHLHPGSAAAVHPVQQHTSSAAAAAAAAAAAAAMLNPGQQQPYFPSPAPGQAPGPAAAAPAQVQAAAAATVKAHHHQHSHHPQQQLDIEPDRPIGYGAFGVVWSVTDPRDGKRVALKKMPNVFQNLVSCKRVFRELKMLCFFKHDNVLSALDILQPPHIDYFEEIYVVTELMQSDLHKIIVSPQPLSSDHVKVFLYQILRGLKYLHSAGILHRDIKPGNLLVNSNCVLKICDFGLARVEELDESRHMTQEVVTQYYRAPEILMGSRHYSNAIDIWSVGCIFAELLGRRILFQAQSPIQQLDLITDLLGTPSLEAMRTACEGAKAHILRGPHKQPSLPVLYTLSSQATHEAVHLLCRMLVFDPSKRISAKDALAHPYLDEGRLRYHTCMCKCCFSTSTGRVYTSDFEPVTNPKFDDTFEKNLSSVRQVKEIIHQFILEQQKGNRVPLCINPQSAAFKSFISSTVAQPSEMPPSPLVWE
- stoichiometry N (SEC): 2
